Measurements as given in patent publication US8821943B2, “Methods and compositions for targeted delivery of therapeutic agents” (Board of Regents of the University of Nebraska, priority 2006, dated 2014).

Columns and labels:
[1] = Particle size, polydispersity and zeta-potential by dynamic light scattering; type: physicochemical; details: Table 6
Procedure: Nanoparticle carrier particles were formed by the methods of the preceding Example, and characterized as follows. The particle size and the zeta-potential were measured using Zeta Plus zeta-potential analyzer (Brookhaven Instruments Ltd., New York, N.Y.), which employs the dynamic light scattering technique for particle size measurement. The particle size and zeta-potential measurements were made after 1:1000 dilution of particle stock in filtered deionized water. Further, the particles were visualized using a transmission electron microscope (TEM). The carbon-coated grids were floated on a suspension droplet of plain or functionalized nanoparticles on a flexible plastic film (Parafilm, Pechiney Plastic Packaging, Neenah, Wis.) to allow the adsorption of nanoparticles onto the grid. After drying the particles, uranyl acetate was added as a negative stain to the carbon grid and allowed to react with the particles. This procedure makes the particles electron dense, allowing their visualization using an electron microscope. The particles were photographed using EM410 Phillips electron microscope (Eindhoven, The Netherlands) set at 60 kV and a magnification of 153000×.
Characterization of particles: The particle size and the zeta-potential were measured using ZetaPlus® zeta-potential analyzer, Brookhaven Instruments Ltd. (New York, N.Y.), which employs the dynamic light scattering technique for particle size measurement. The particle size and zeta-potential measurements were carried out after 1:1000 dilution of particle stock in filtered deionized water before lyophilization in filtered deionized water. The effective diameter of conjugated nanoparticles was higher than that of unconjugated nanoparticles.
Particle Size Analysis: Particle size and zeta-potential of the nanoparticles before and after conjugation following lyophilization were measured in double distilled water (100 μl of particle/1 ml of water) using dynamic light scattering (DLS). After lyophilization the plasmid loaded particles were weighed (1 mg) into glass Kimble tubes. To each tube, 1 ml of double distilled water was added and vortexed at high speed (Vortex Genie, Scientific Industries, Bohemia, N.Y.) till the particles were resuspended. The particle size and zeta potential was determined using dynamic light scattering after dilution (1:10 in double distilled water) (Brookhaven Instruments Corp., Holtsville, N.Y.). Nanoparticle size after lyophilization was 210.4±0.68 nm and zeta potential was −32.85±0.87 mV. Nanoparticle size and zeta potential was measured after conjugation with deslorelin and transferrin. Similarly, the unconjugated nanoparticles were also treated under the same conditions as with the conjugated nanoparticles (the conjugation protocol as mentioned above).
Transport studies were conducted in bovine nasal tissue. Bovine nasal tissue was obtained from freshly slaughtered cattle, and different regions (MTA, MTP, ITP) were prepared as described in Example 13. Nanoparticles coupled to deslorelin or transferring via aldehyde sulfate moieties were prepared as described in Example 3. The nanoparticle size was measured using a Zeta Plus Analyzer (Brookhaven Instruments Limited, UK). Particle size was analyzed before and after ligand conjugation in deionized filtered water.

ARPE-19 cells = test: Nanoparticle uptake by human retinal pigment epithelial cells; type: cell-based; details: 1 ml of 100 μg/ml suspension in serum free medium
Procedure: A study was performed to examine the effect of targeting moieties on biodegradable and non-biodegradable carrier particles and their uptake in ocular cells. The biodegradable and non-biodegradable targeted carrier particles of the preceding Example were used. Uptake of nanoparticles by human retinal pigment epithelial cells (ARPE-19 cell line) was quantified by measuring fluorescence in cell lysate obtained after incubation of targeted or untargeted (unconjugated) nanoparticles with ARPE-19 cell monolayers.
ARPE-19 cells were obtained from American Type Culture Collection (ATCC, Manassas, Va.). The cells were maintained in culture according to supplier's recommendation. All studies were conducted using confluent cells of passages 20-30. Dulbecco's modified Eagle's medium (DMEM-F/12), fetal bovine serum, penicillin-streptomycin and L-glutamine were obtained from Gibco-BRL (Invitrogen Inc., Carlsbad, Calif.). Cell culture flasks (T-75 cm^2) and plates were purchased from Corning Inc., (Corning, N.Y.). To investigate the uptake of particles, ARPE-19 cells between 20-30 passages were cultured in 24-well plates until confluency. […] Fluorescence intensity of the cell lysates was determined at an excitation and emission wavelength of 505 and 515 nm, respectively, for FluoSpheres®. […]

LHRH-receptor = target: T1, LHRH-receptor (Bos taurus, UniProt P32236); test: Receptor binding assays (kinetic, saturation, competition) with 125I-deslorelin in bovine pituitary and nasal tissue homogenates; details: 4° C.; remained stable until 4 hr
T1 construct: The tissue homogenate was then centrifuged at 15000 g for 15 min at 4° C. to separate the crude membrane from the buffer; from tissue; host or cells: bovine nasal mucosa (MTA, MTP, ITP regions) and bovine pituitary, crude membrane homogenates
T1 sequence (P32236 1-328): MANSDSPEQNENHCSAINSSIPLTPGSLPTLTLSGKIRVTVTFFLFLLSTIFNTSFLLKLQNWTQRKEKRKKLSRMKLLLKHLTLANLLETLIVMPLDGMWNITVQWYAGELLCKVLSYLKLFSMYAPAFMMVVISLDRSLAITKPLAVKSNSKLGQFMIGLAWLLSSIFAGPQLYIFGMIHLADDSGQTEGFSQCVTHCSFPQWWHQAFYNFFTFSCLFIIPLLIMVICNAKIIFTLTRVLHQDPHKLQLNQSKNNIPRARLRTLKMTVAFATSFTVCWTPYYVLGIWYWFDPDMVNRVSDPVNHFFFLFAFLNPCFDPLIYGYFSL
Procedure: Radioactivity was measured in the pellet using a Perkin-Elmer γ-counter.
Reprod. […] Reprod. […] Radioactivity was measured in the pellet using a Perkin-Elmer γ-counter. […] The experiment was repeated three times.
Competition Studies: To determine the amount of unlabelled deslorelin required to displace the radioactivity, competition studies were conducted. […] Assays were performed in triplicates. At the end of 4 hr, the incubation tubes were centrifuged at 10,000 g for 20 min at 4° C. to separate the bound fraction. Radioactivity was measured in the pellet using a Perkin-Elmer γ-counter. The same controls as in the kinetic and saturation studies were used. The experiment was repeated three times.

With “Transferrin-PLGA: transferrin conjugated nile red loaded PLGA nanoparticles” the Zeta potential [1] was −17.94 ± 1.5 mV, the Effective diameter ([1]; 1:1000 dilution in filtered deionized water) was 385.8 ± 4.6 nm and the “percentage uptake at 3 h by ARPE-19 cells” value (ARPE-19 cells) was 3.32±0.1%.

For “^125I-deslorelin: I^125 labeled deslorelin radioligand (EHWSYWLRP; D-residues; non-natural residues)”, the “time at which binding reached a maximum” value (LHRH-receptor) was 1.5 h.
